# Measurements as given in patent US20230348616A1 (MIE UNIVERSITY, published 2023).
# B1: NYZ-1010 (bispecific antibody, human IgG1, lambda, L234A L235A)
# chain 1: not shown
# chain 2: not shown
# light: NFMLTQPSSVSGVPGQRVTISCTGNTGNIGSNYVNWYQQLPGTAPKLLIYRDDKRPSGVPDRFSGSKSGTSASLAITGFQAEDEADYYCQSYSSGFIFGGGTKLTVLGQPKAAPSVTLFPPSSEELQANKATLVCLISDFYPGAVTVAWKADSSPVKAGVETTTPSKQSNNKYAASSYLSLTPEQWKSHRSYSCQVTHEGSTVEKTVAPTECS
# B2: NYA-2048 (scFv)
# scFv: GQVQLVESGGGVVQPGRSLRLSCAASGFSIRSYDMHWVRQAPGKGLEWVATISYDGSQKYYADSVKGRFTISRDNSKNTLYLQMSSLRAEDTAVYHCARGSSGHYEAFDIWGQGTLVTVSSGGGGSGGGGSGGGGSQSVLTQPPSASGTPGQRVTISCSGSSSNIGNWYVSWYQQLPGTAPKLLIYDNNKRPSGVPDRFSGSKSGTSASLAISGLQSEDEADYYCGTWDSSLSAPWVFGGGTKLTVLGAAAGAGGDYKDDDDKGAAAHHHHHH
# notes: also called NYA-2048 tag adduct
# B3: NY-R119 (scFv)
# scFv: EVQLVESGGGVVQPGRSLTPSCSASGFSIRSYDIHWVRQAPGKGLEWVATISYDGSQKYFADSVKGRFTIFRDESENMVYLQMSGLRVEDTAVYHCARGSSGHYEAFDIWGQGTMVTVSSGGGGSGGGGSGGGGSQSVLTQPPSVSAAPGQKVTISCSGSSSNIGNNYVSWYQQLPGTAPKLLIYDNNKRPSGIPDRFSGSKSGTSATLGITGLQTGDEADYYCGTWDSSLSAPWVFGGGTKVTVL
# notes: Expressed in E. coli, culture solution used in the ELISA; also called ELISA-positive clone NY-R119; not shown: FLAG tag and His tag at the carboxyl terminus from the E. coli expression vector
# B4: NYC-0008 (scFv)
# scFv: GEVQLVESGGGVVQPGGSLRLSCEASGFIFDDYAMHWVRQAPGKGLEWVSLISGDGDIIYYADSVKGRFTISRDNSKNSLYLQMNSLIIEDTALYYCAKDWVFGVVMTHYWYFGLDVWGQGTTVTVSSGGGGSGGGGSGGGGSDIQMTQSPSSLSASEGDRVTITCRASQSISTYLNWYQQKPGKAPKLLIYGASSLQSGVPSRFSGSGSGTDFTLTISSLQPEDFATYYCQQSYSTPPITFGQGTKVEIKGAAAGAGGDYKDDDDKGAAAHHHHHH
# notes: Captured by anti-His antibody in SPR; also called scFv of mAb28105P
# Legend:
# [1] = target: HLA-A2/NY-ESO peptide complex presented on cells (human); test: cell-based or functional assay
# [2] = target: HLA-A2/NY-ESO peptide complex presented on cells (human); test: cell-based or functional assay; remark: listed apart in the source
# [3] = target: T1, HLA-A*0201/β2-microglobulin/NY-ESO peptide complex (human, biotinylated with E. coli biotin ligase at the added recognition sequence (biotinylated form used in the ELISA)); test: SPR (Biacore T200), bispecific captured by anti-human IgG (Fc) antibody, HLA/NY-ESO as analyte, single cycle kinetics
# T1 construct: also called HLA/NY-ESO; HLA-A2/NY-ESO
# Experimental: With the use of Biacore T200, various Fc-conjugated anti-HLA/NY-ESO-anti-CD3 bispecific molecules were captured as ligands to the immobilized anti-human IgG (Fc) antibody, and the antigen was assayed as an analyte. […] The anti-human IgG (Fc) antibody (Human antibody Capture kit, GE Healthcare) was immobilized on Sensor Chip CM5 (GE Healthcare) in accordance with the instructions of the kit. The Fc-conjugated anti-HLA/NY-ESO-anti-CD3 bispecific molecules diluted to 0.5 g/ml in HBS-EP+(GE Healthcare) to be evaluated were brought into contact therewith at 10 μl/min for 60 seconds for immobilization. Thereafter, the samples were added to the HLA/NY-ESO analytes diluted to various levels with HBS-EP+ at a flow rate of 30 μl/min for 120 seconds and dissociation was assayed for 600 seconds.
# 1F = target: T2, 1F (human); test: flow cytometry, CD3e knockout T2 cells pulsed with 50 µM peptide, antibody at 100 nM, PE anti-human IgG; gMFI standardized to the HLA/peptide amount; DMSO-only cells 1.15
# T2 construct: cell surface; also called HLA-A2 / point-mutant NY-ESO peptide 1F complex on CD3e knockout T2 cells
# Experimental: (§1) The cells were washed 2 times in PBS containing 5% FBS, PE conjugated F(ab′)2 Fragment Anti-Human IgG (Jackson Immuno Research Laboratories) diluted with PBS containing 5% FBS was added at 25 μl/well, and the resultant was allowed to stand at 4° C. for 30 minutes. The cells were washed 2 times in PBS containing 5% FBS, immobilized with Mildform 10 N (FUJIFILM Wako Pure Chemical Corporation) overnight, and resuspended in PBS containing 5% FBS. […] The cells were washed 2 times in PBS containing 5% FBS, immobilized with Mildform 10 N (FUJIFILM Wako Pure Chemical Corporation) overnight, and resuspended in PBS containing 5% FBS. The cell suspensions were subjected to detection using a flow cytometer (CantoII, Becton Dickinson). […] The standardized gMFI indicating the binding affinity of each Fc-conjugated anti-HLA-A2/NY-ESO-anti-CD3 bispecific molecule standardized with the amount of the HLA/peptide complex on the CD3e knockout T2 cells was determined in accordance with the following equation.
# gp100 [4] = target: T3, gp100 (human); test: as above
# T3 construct: cell surface; unrelated control peptide; also called HLA-A2 / gp100 peptide complex on CD3e knockout T2 cells
# Experimental: as §1
# [5] = target: T4, HLA-A2/NY-ESO peptide complex presented on cells (human); test: as above
# T4 construct: whole, on cells; also called HLA/NY-ESO; T2 cells supplemented with the NY-ESO peptide
# Experimental: as §1
# gp100 [6] = target: T3, gp100; test: flow cytometry, CD3e knockout T2 cells pulsed with 50 µM peptide, antibody at 100 nM, PE anti-human IgG; gMFI standardized to the HLA/peptide amount; DMSO-only cells 1.19
# Text: (§2) The cells were washed 2 times in PBS containing 5% FBS, immobilized with Mildform 10 N (FUJIFILM Wako Pure Chemical Corporation) overnight, and resuspended in PBS containing 5% FBS. The cell suspensions were subjected to detection using a flow cytometer (CantoII, Becton Dickinson). […] The standardized gMFI indicating the binding affinity of each Fc-conjugated anti-HLA-A2/NY-ESO-anti-CD3 bispecific molecule standardized with the amount of the HLA/peptide complex on the CD3e knockout T2 cells was determined in accordance with the following equation.
# (§3) The standardized gMFI indicating the binding affinity of each Fc-conjugated anti-HLA-A2/NY-ESO-anti-CD3 bispecific molecule standardized with the amount of the HLA/peptide complex on the CD3e knockout T2 cells was determined in accordance with the following equation.
# [7] = target: T4, HLA-A2/NY-ESO peptide complex presented …; test: as above
# Text: as §2, §3
# [8] = target: T5, HLA-A2 / homologous peptide DOLPP1 complex on T2 cells (human); test: as above
# T5 construct: whole, on cells; also called T2 cells supplemented with homologous peptide DOLPP1
# Text: as §2, §3
# [9] = target: T6, HLA-A2 / homologous peptide IL20RB complex on T2 cells (human); test: as above
# T6 construct: whole, on cells; also called T2 cells supplemented with homologous peptide IL20RB
# Text: as §2, §3
# [10] = target: T7, HLA-A2 / homologous peptide PRKD2 complex on T2 cells (human); test: as above
# T7 construct: whole, on cells; also called T2 cells supplemented with homologous peptide PRKD2
# Text: as §2, §3
# [11] = target: T8, HLA-A2 / homologous peptide CD163 complex on T2 cells (human); test: as above
# T8 construct: whole, on cells; also called T2 cells supplemented with homologous peptide CD163
# Text: as §2, §3
# [12] = target: T9, HLA-A2 / homologous peptide P2RY8 complex on T2 cells (human); test: as above
# T9 construct: whole, on cells; also called T2 cells supplemented with homologous peptide P2RY8
# Text: as §2, §3
# [13] = target: T5, HLA-A2 / homologous peptide DOLPP1 …; test: flow cytometry, peptide-pulsed T2 cells
# [14] = target: T6, HLA-A2 / homologous peptide IL20RB …; test: flow cytometry, peptide-pulsed T2 cells
# [15] = target: T7, HLA-A2 / homologous peptide PRKD2 …; test: flow cytometry, peptide-pulsed T2 cells
# [16] = target: T8, HLA-A2 / homologous peptide CD163 …; test: flow cytometry, peptide-pulsed T2 cells
# [17] = target: T9, HLA-A2 / homologous peptide P2RY8 …; test: flow cytometry, peptide-pulsed T2 cells
# gp100 [18] = target: T10, gp100 (human); test: flow cytometry on peptide-pulsed T2 cells, scFv 100 nM
# T10 construct: cell surface;cell surface complex; also called HLA-A2 / gp100 peptide complex on T2 cells
# Experimental: (§4) The resultant was washed two times in the AIM-V medium containing 20% FBS, the concentration thereof was adjusted to an adequate level with PBS containing 5% FBS, the LIVE/DEAD Fixable Dead Cell Stain Kit (Thermo Fisher Scientific) was added thereto, and the resultant was allowed to stand at 4° C. for 30 minutes. The cells were washed 2 times in PBS containing 5% FBS, the washed cells were divided into two groups, the cells in PBS containing 5% FBS were seeded on a 96-well U-bottom microplate at 10⁵ cells/well, and the plate was subjected to centrifugation, followed by removal of the supernatant. Anti-HLA/NY-ESO scFv diluted to 100 nM with PBS containing 5% FBS was added at 25 μl/well to one of the divided cells, and the resultant was allowed to stand at 4° C. for 30 minutes. The cells were washed 2 times in PBS containing 5% FBS, Penta-His Alexa Fluor488 (QIAGEN) diluted in PBS containing 5% FBS was added at 25 μl/well, and the resultant was allowed to stand at 4° C. for 30 minutes. The cells were washed 2 times in PBS containing 5% FBS, Anti-mouse-IgG Alexa Fluor488 (Thermo Fisher Scientific) diluted in PBS containing 5% FBS was added at 25 μl/well, and the resultant was allowed to stand at 4° C. for 30 minutes. The cells were washed 2 times in PBS containing 5% FBS, immobilized with Mildform 10 N (FUJIFILM Wako Pure Chemical Corporation) overnight, and resuspended in PBS containing 5% FBS. […] The cells were washed 2 times in PBS containing 5% FBS, immobilized with Mildform 10 N (FUJIFILM Wako Pure Chemical Corporation) overnight, and resuspended in PBS containing 5% FBS. The cell suspensions were subjected to detection using a flow cytometer (CantoII, Becton Dickinson). […] The standardized gMFI indicating the binding affinity of each scFv standardized with the amount of the HLA/peptide complex on the T2 cells was determined in accordance with the following equation.
# [19] = target: T4, HLA-A2/NY-ESO peptide complex presented …; test: as above
# Experimental: as §4
# gp100 [20] = target: T10, gp100; test: as above; remark: listed apart in the source
# Experimental: (§5) The cells were washed 2 times in PBS containing 5% FBS, immobilized with Mildform 10 N (FUJIFILM Wako Pure Chemical Corporation) overnight, and resuspended in PBS containing 5% FBS. The cell suspensions were subjected to detection using a flow cytometer (CantoII, Becton Dickinson). […] The standardized gMFI indicating the binding affinity of each scFv standardized with the amount of the HLA/peptide complex on the T2 cells was determined in accordance with the following equation.
# (§6) The 9-mer peptide shown in FIG. 2A was selected as a homologous peptide for evaluation of binding specificity of anti-HLA/NY-ESO scFv. […] The standardized gMFI indicating the binding affinity of each scFv standardized with the amount of the HLA/peptide complex on the T2 cells was determined in accordance with the following equation.
# [21] = target: T4, HLA-A2/NY-ESO peptide complex presented …; test: as above; remark: listed apart in the source
# Experimental: as §5, §6
# [22] = target: T5, HLA-A2 / homologous peptide DOLPP1 …; test: as above
# Experimental: as §5, §6
# [23] = target: T6, HLA-A2 / homologous peptide IL20RB …; test: as above
# Experimental: as §5, §6
# [24] = target: T7, HLA-A2 / homologous peptide PRKD2 …; test: as above
# Experimental: as §5, §6
# [25] = target: T8, HLA-A2 / homologous peptide CD163 …; test: as above
# Experimental: as §5, §6
# [26] = target: T9, HLA-A2 / homologous peptide P2RY8 …; test: as above
# Experimental: as §5, §6
# [27] = target: T1, HLA-A*0201/β2-microglobulin/NY-ESO …; test: SPR (Biacore T200), scFv captured by anti-His antibody, HLA/NY-ESO as analyte, single cycle kinetics
# Experimental: With the use of Biacore T200, anti-HLA/NY-ESO scFv was captured as a ligand by the immobilized anti-His antibody, and the antigen was assayed as an analyte. As the antigen, HLA/NY-ESO prepared in 1)-1 was used. The anti-His antibody (His Capture kit, GE Healthcare) was immobilized on Sensor Chip CM5 (GE Healthcare) in accordance with the instructions of the kit. The anti-HLA/NY-ESO scFv constructs diluted to 0.5 μg/ml in HBS-EP+ (GE Healthcare) to be evaluated were brought into contact therewith at 10 μl/min for 60 seconds for immobilization. Thereafter, the samples were added to the HLA/NY-ESO analytes diluted to various levels with HBS-EP+ at a flow rate of 30 μl/min for 120 seconds and dissociation was assayed for 600 seconds.
# [28] = target: T1, HLA-A*0201/β2-microglobulin/NY-ESO …; test: ELISA, biotinylated HLA/NY-ESO on NeutrAvidin, scFv from E. coli culture, anti-FLAG-HRP
# Experimental: The plate was washed 3 times with ELISA buffer, blocked with Blocker Casein (Thermo Fisher Scientific), and then washed 3 times with ELISA buffer. Thereafter, a culture solution of scFv-expressing E. coli was added, and the reaction was allowed to proceed at room temperature for 2 hours. After the resultant was washed 3 times with ELISA buffer, 50 μl of the horseradish peroxidase (HRP)-labeled anti-FLAG antibody (Sigma-Aldrich) diluted to 5,000-fold with ELISA buffer was added, and the reaction was allowed to proceed at room temperature for 1 hour.
# [29] = target: T1, HLA-A*0201/β2-microglobulin/NY-ESO …; test: SPR (Biacore T200), scFv captured by anti-His antibody, HLA/NY-ESO as analyte, single cycle kinetics; remark: listed apart in the source
# Experimental: With the use of Biacore T200, the anti-HLA/NY-ESO scFv was captured as a ligand to the immobilized anti-His antibody, and the antigen was assayed as an analyte. As the antigen, HLA/NY-ESO prepared in 1)-1 was used. The anti-His antibody (His Capture kit, Cytiva) was immobilized on Sensor Chip CM5 (Cytiva) in accordance with the instructions of the kit. The anti-HLA/NY-ESO scFv constructs diluted to 0.5 μg/ml in HBS-EP+(Cytiva) to be evaluated were brought into contact therewith at 10 μl/min for 60 seconds for immobilization. Thereafter, the samples were added to the HLA/NY-ESO analytes diluted to various levels with HBS-EP+ at a flow rate of 30 μl/min for 120 seconds and dissociation was assayed for 600 seconds.
binder,measurement,setting,value
B1,"EC50 of cytotoxicity on U266B1 cells (51Cr release, human PBMC effectors)",[1],0.96 nM
same,"EC50 of cytotoxicity on NCI-H1703 cells (51Cr release, human PBMC effectors)",[2],2.56 nM
same,Kd,[3],1.9 nM
same,standardized gMFI,1F,0.86
same,standardized gMFI,gp100 [4],0.53
same,standardized gMFI,[5],43.3
same,standardized gMFI,gp100 [6],0.54
same,standardized gMFI,[7],44.4
same,standardized gMFI,[8],0.7
same,standardized gMFI,[9],0.88
same,standardized gMFI,[10],0.54
same,standardized gMFI,[11],0.67
same,standardized gMFI,[12],0.95
B2,binding result,[13],no binding (tested: 100 nM)
same,binding result,[14],no binding (tested: 100 nM)
same,binding result,[15],no binding (tested: 100 nM)
same,binding result,[16],no binding (tested: 100 nM)
same,binding result,[17],no binding (tested: 100 nM)
same,standardized gMFI,gp100 [18],0.41
same,standardized gMFI,[19],6.58
same,standardized gMFI,gp100 [20],0.34
same,standardized gMFI,[21],8.82
same,standardized gMFI,[22],0.44
same,standardized gMFI,[23],0.48
same,standardized gMFI,[24],0.35
same,standardized gMFI,[25],0.52
same,standardized gMFI,[26],0.69
same,Kd,[27],6.3 nM
B3,binding result,[28],binds
B4,Kd,[29],7.9 nM
